Read-outs that look alike come from different tables or passages of the source.
T1: BCMA on cells, species not stated (Homo sapiens (Human), UniProt Q02223 1-184)
T1 construct: also called BCMA cells; 3T3 BCMA cells
T1 sequence: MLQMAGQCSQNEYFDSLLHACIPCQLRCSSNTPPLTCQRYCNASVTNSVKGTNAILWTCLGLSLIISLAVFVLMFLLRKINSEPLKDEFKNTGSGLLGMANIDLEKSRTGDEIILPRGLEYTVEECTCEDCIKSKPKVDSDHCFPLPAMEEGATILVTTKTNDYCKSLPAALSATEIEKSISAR

T2: human BCMA (TNFRSF17) expressed on cells (human, UniProt Q02223 1-184)
T2 construct: whole, on cells; also called HEK 293T-hu BCMA cells; human BCMA cell lines
T2 sequence (looked up): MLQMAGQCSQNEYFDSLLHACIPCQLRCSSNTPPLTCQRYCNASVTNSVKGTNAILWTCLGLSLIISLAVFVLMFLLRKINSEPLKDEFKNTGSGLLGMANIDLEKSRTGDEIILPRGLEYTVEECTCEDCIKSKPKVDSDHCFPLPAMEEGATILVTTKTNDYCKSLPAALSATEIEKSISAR

T3: hBCMA-his-biotin (Acro, BCA-H82E4) (human, UniProt Q02223 1-54, biotin (as printed: hBCMA-his-biotin; site not stated))
T3 construct: Bought reagent; not shown: His tag
T3 sequence (looked up): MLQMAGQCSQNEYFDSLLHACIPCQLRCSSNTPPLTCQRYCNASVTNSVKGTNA


What was measured:
[1] = target: T1, BCMA on cells, species not stated; test: blocking of BAFF binding to BCMA cells
[2] = target: T1, BCMA on cells, species not stated; test: cell binding, MFI against antibody concentration, panel title Bind to NCI-H929 cell
[3] = target: T2, human BCMA (TNFRSF17) expressed on cells; test: cell binding, MFI against antibody concentration, HEK 293T-hu BCMA cells (cell line from legend paragraph 17)
EGFR = target: T4, EGFR (human, UniProt P00533 25-1210); test: cell microarray, confirmation screen, control receptor; cell left blank in Table 13
T4 construct: whole, on cells; also called control receptor
Procedure: In order to screen the on-target specificity of one of the VH-only anti-BCMA-targeted CARs, the Retrogenix Cell Microarray Technology platform was employed, which is a high-throughput platform for screening binding interactions between a test molecule and about 6100 human surfaceome proteins.
This was performed on both fixed and live cells (FIGS. 11A-11D).

[4] = target: T5, cynomolgus monkey BCMA expressed on HEK 293T cells (cynomolgus monkey, UniProt A0A2K5UD97 1-183); test: cell binding, MFI against antibody concentration, panel title Bind to HEK293T - cyno BCMA
T5 construct: also called HEK 293T-cyno BCMA cells; cyno BCMA

[5] = target: T3, hBCMA-his-biotin (Acro, BCA-H82E4); test: biosensor kinetics, SA sensor loaded with hBCMA-his-biotin, antibody in solution
Procedure: (§1) The sensor was streptavidin (SA), loaded with hBCMA-his-biotin from Acro catalog number BCA-H82E4, and 50 nM antibody with a 1:2 dilution factor. Association times in FIG. 5A-FIG. 5C were each 600 s and dissociation times were each 900 s.

[6] = target: T3, hBCMA-his-biotin (Acro, BCA-H82E4); test: as above; remark: listed apart in the source
Procedure: as §1

T5 sequence (A0A2K5UD97 entry or part of it limits assumed): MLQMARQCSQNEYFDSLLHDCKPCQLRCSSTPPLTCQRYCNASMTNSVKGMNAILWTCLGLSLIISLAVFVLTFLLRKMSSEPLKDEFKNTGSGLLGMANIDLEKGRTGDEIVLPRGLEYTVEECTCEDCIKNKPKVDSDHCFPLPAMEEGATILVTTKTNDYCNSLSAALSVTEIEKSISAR

Binder | Span [1] | EC50 (read off the curve) [2] [nM] | EC50 (read off the curve) [3] [µg/mL] | binding result (EGFR) | binding result [4] | Kd [5] [nM] | koff [5] [s⁻¹] | kon [5] [M⁻¹ s⁻¹] | Kd [6] [nM] | koff [6] [s⁻¹] | kon [6] [M⁻¹ s⁻¹]
PR000943 (antibody, V domains shown, also called HCAb antibody PR000943; not shown: constant part (CH2 and CH3 regions of the Harbour HCAb format)) VH: EVQLVETGGGLIQPGGSLRLSCAASGFPVSSNYMSWVRQAPGKGLEWVSVIFSGGRTYYADSVKGRFTISRDNSKNTLYLQMNSLRAEDTAVYYCARRNWIDGRDAFDIWGQGTMVTVSS | 2.19 | ~4 | ~0.01 |  |  |  |  |  |  |  | 
PR001035 (antibody, V domains shown, also called HCAb antibody PR001035; not shown: constant part (CH2 and CH3 regions of the Harbour HCAb format)) VH: EVQLVETGGGLIQPGGSLRLSCAASGFTVSSNYMTWVRQAPGKGLEWVSVIFSGGSTYYADSVKGRFTISRDNSKNTLYLQMNSLRAEDTAVYYCARRIAVAGHDVFDIWGQGTMVTVSS | 1.92 | ~1 | ~0.02 |  |  |  |  |  |  |  | 
PR001046 (antibody, V domains shown, also called HCAb antibody PR001046; PR001046 VH-only human IgG1 test antibody; not shown: constant part (CH2 and CH3)) VH: EVQLVETGGGLIQPGGSLRLSCAASGFTVSDNYMTWVRQAPGKGLEWVSVIFSGGNTYYADSVKGRFTISRDNAKNTLYLQMNSLRAEDTALYYCARRNYDDTRGTDVFDIWGQGTMVTVSS | 1.99 | ~2 | ~0.02 | no binding (tested: 2.5 µg/mL) |  |  |  |  |  |  | 
PR000940 (antibody, V domains shown, Heavy chain-only antibody from Harbour HCAb mice: dimer of two heavy chains, each with VH, CH2 and CH3; also called HCAb antibody PR000940; not shown: constant part (CH2 and CH3 regions of the Harbour HCAb format)) VH: EVQLLESGGGLVQPGGSLRLSCAASGFTFSSYAMIWVRQAPGKGLEWVSGISESGGSTYYADSVKGRFTISRDNSKNTLYLQMNSLRAEDTAVYFCVKDLDDILTGYYKDYWGQGTLVTVSS |  | ~2 |  |  | no binding |  |  |  |  |  | 
PR000274 (clone CA8-J6M0) (antibody, V domains shown) VH: QVQLVQSGAEVKKPGSSVKVSCKASGGTFSNYWMHWVRQAPGQGLEWMGATYRGHSDTYYNQKFKGRVTITADKSTSTAYMELSSLRSEDTAVYYCARGAIYDGYDVLDNWGQGTLVTVSS VL: DIQMTQSPSSLSASVGDRVTITCSASQDISNYLNWYQQKPGKAPKLLIYYTSNLHSGVPSRFSGSGSGTDFTLTISSLQPEDFATYYCQQYRKLPWTFGQGTKLEIKR | 1.86 | ~10 |  |  |  | < 0.001 | < 1e-07 | 228000 | < 0.001 | < 1e-07 | 195000
